Data taken from US20130316374A1, “BREAST CANCER DIAGNOSTICS” (IMBA - INSTITUT FUR MOLEKULARE BIOTECHNOLOGIE GMBH, priority 2010, published 2013).

B1: RANKL: Receptor Activator of NF-κB Ligand; recombinant murine RANKL used for stimulation (protein, UniProt O35235 139-316, looked up)
Tumor necrosis factor ligand …: FSGAPAMMEGSWLDVAQRGKPEAQPFAHLTINAASIPSGSHKVTLSSWYHDRGWAKISNMTLSNGKLRVNQDGFYYLYANICFRHHETSGSVPTDYLQLMVYVVKTSIKIPSSHNLMKGGSTKNWSGNSEFHFYSINVGGFFKLRAGEEISIQVSNPSLLDPDQDATYFGAFKVQDID

How the values were obtained:
RANKL = RANKL expression in purified mammary epithelial cells (qRT-PCR, Western blot); type: in vivo, mouse; settings: nulliparous wild type females, 3 days after implantation/oral gavage
Description: a,b, MPA induces RANKL expression in mammary epithelial cells. Nulliparous wild type females were treated with oral gavage of DMBA or oil vehicle, s.c. implanted with slow-release MPA pellets, or treated with sham surgery. a, RANKL mRNA was determined in purified mammary epithelial cells by qRT-PCR 3 days after implantation/oral gavage. Data are shown as fold change compared to sham treatment+/−sem. n=3 mice per group. b, Expression of soluble (s) RANKL protein (19 kDa) was assayed on cell lysates from purified mammary epithelial cells by Western blot 3 days after treatment with oil vehicle, DMBA, MPA, or sham surgery. β-actin is shown as a loading control. […] Data are shown as percentage of tumor-free mice after the last DMBA challenge. No significant difference was found between the Cre+ and the Cre− control groups. Median tumor onset for Cre^+ controls was 9 days, for Cre^− controls 11 days, and for RANK^Δmam females 30 days after the last DMBA treatment. d, Representative Southern blot of MPA/DMBA-induced mammary tumors derived from RANK^flox/+; MMTV-Cre+ and RANK^flox/Δ; MMTV-Cre+ (RANK^Δmam) females. […]
Total RNA of tumors was prepared using the RNeasy Mini Kit (Qiagen), according to the manufacturer's instructions. Total RNA (2 μg) was subjected to quantitative (q)RT-PCR analysis. […]

[1] = tested on: SKBR3 human breast cancer cells; test: DNA damage responses (cell cycle arrest, apoptosis) in SKBR3 cells; type: cell-based; settings: RANKL 1 μg/ml
Description: a, Western Blot analysis for γH2AX, phosphorylated (P) Chk1, total Chk1, p53 and β-actin in isolated primary mouse mammary gland epithelial cells in response to γ-irradiation (2 Gray) in the presence (1 μg/ml) or absence of RANKL stimulation. b,c, FACS analysis of propidium iodide (PI) stained b, mammary epithelial cells and c, SKBR3 human breast cancer cells after γ-irradiation (2 Gray) in the absence or presence (1 μg/ml) of RANKL. Data are representative of at least 3 experiments. Apoptotic cells with a DNA content <2n appear in the sub-G1 region. Percent of cells in sub-G1 (M1), G1-phase (M2), S/G2/M-phase (M3) as well as polyploid cells with a DNA content >4n are given for the indicated time points.
a,b, FACS analysis of a, mammary epithelial cells and b, SKBR3 human breast cancer cells incubated with the genotoxic agent doxorubicin (Dox, 1 μM) in the presence (1 μg/ml) or absence of RANKL. Data are representative of at least 3 experiments. Percent of cells in sub-G1 (M1), G1-phase (M2), S/G2/M-phase (M3) as well as polyploid cells with a DNA content >4n are given for 24 and 36 hours after doxorubicin treatment. c, mRNA expression of pro-apoptotic genes Bim, Puma, and Noxa 6 hours after γ-irradiation (2 Gray) in the presence (1 μg/ml) or absence of RANKL stimulation. Data are shown as fold change compared to control (+/−sem). n=3). *P<0.05; **P<0.005 (Student's t-test).
For measurement of cell cycle arrest and apoptosis primary mouse mammary epithelial cells and SKBR3 human breast cancer cells were seeded at a cell-density of 100000 cells/well in a 6-well plate and allowed to grow for 24 hours. Cells where then treated with doxorubicin (1 μM) or γ-irradiation (2 Gray) in the absence or presence of recombinant RANKL (1 μg/ml). Cell cycle arrest and numbers of dead cells were determined using propidium iodine staining. To determine in vivo mammary gland epithelial cell death, control and RANK^Δmam littermate females were γ-irradiated with a total dose of 5 Gray (Gy). Six hours later, mammary glands were isolated and immunostained for active Caspase 3 (Cell Signaling) indicative of apoptosis.

Row | Molecule | RANKL mRNA and protein expression in mammary epithelial cells (RANKL) | cell death after DNA damage ([1]; doxorubicin (1 μM)) | early cell cycle arrest after DNA damage ([1]; doxorubicin (1 μM)) | cell death after DNA damage ([1]; γ-irradiation (2 Gray)) | early cell cycle arrest after DNA damage ([1]; γ-irradiation (2 Gray))
1 | CC(=O)O[C@]1(C(C)=O)CC[C@H]2[C@@H]3C[C@H](C)C4=CC(=O)CC[C@]4(C)[C@H]3CC[C@@]21C [MPA, medroxyprogesterone acetate] | induced RANKL mRNA and protein expression | – | – | – | –
2 | B1 | – | marked protection from cell death | did not alter | marked protection from cell death | did not alter
